Assays:
[1] = target: YFP^N-TaHSP90 (Triticum aestivum); test: split reporter (BiFC, NanoBiT); BiFC in tobacco (Nicotiana benthamiana) protoplasts; YFP^N (pSY736) and YFP^C (pSY735) fusions co-expressed by the polyethylene glycol method; fluorescence monitored 24-48 hours after transformation; fluorescent and observed cells counted from ten fields of vision
[2] = target: YFP^N-TaNPSN11 (full-length TaNPSN11 fused to the N-terminal part of YFP) (Triticum aestivum (common wheat)); test: as above
Sequence of YFP^N-TaNPSN11 (full-length TaNPSN11 fused to the N-terminal part of YFP) (Triticum aestivum (common wheat)) (main, as listed by the source): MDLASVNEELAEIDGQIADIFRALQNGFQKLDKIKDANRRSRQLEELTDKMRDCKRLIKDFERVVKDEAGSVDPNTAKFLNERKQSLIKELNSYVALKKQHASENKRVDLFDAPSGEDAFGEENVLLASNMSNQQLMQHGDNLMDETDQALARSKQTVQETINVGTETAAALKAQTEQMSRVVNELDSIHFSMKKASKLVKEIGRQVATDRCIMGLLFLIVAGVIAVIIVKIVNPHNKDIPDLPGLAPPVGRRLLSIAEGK

YFP^C-TaRAR1 (natural protein) showed a ratio of fluorescent cells [1] of 0.25.
“YFP^C-TaSYP132 (full-length TaSYP132 fused to the C-terminal part of YFP) (natural protein)” was tested, and the ratio of fluorescent cells [2] was 0.06.
